Assay results published in PMC9911596 (Nature Communications, 2023).

T1: Vtc1/Vtc3/Vtc4 complex (VTC complex) (Saccharomyces cerevisiae, UniProt P47075+Q02725)
T1 construct: full-length subunits co-expressed in Expi293F; Vtc1 C-terminal HA, Vtc3 N-terminal 3xFlag, Vtc4 C-terminal 2xStrep; detergent-purified; 3:1:1 pentamer; with Vacuolar transporter chaperone complex subunit 1
T1 sequence (P47075 1-721): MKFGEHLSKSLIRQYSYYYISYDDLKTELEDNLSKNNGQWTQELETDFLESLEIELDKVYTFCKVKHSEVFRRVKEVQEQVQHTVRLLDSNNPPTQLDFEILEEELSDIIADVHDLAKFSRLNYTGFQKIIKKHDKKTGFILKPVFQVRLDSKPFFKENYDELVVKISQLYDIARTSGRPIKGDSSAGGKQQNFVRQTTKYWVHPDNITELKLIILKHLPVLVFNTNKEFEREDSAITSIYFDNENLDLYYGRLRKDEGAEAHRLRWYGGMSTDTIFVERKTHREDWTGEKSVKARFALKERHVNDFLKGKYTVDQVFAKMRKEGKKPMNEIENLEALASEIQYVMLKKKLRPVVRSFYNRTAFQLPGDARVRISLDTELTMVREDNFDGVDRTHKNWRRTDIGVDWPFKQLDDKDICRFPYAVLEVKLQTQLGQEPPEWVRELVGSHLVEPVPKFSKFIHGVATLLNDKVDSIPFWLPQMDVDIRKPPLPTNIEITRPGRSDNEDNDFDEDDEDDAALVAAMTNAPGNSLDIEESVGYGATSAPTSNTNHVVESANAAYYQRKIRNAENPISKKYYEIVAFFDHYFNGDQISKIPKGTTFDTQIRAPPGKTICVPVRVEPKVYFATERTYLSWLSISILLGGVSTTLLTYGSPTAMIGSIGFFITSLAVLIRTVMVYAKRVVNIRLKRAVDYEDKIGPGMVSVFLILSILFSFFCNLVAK
T1 sequence (Q02725 1-835): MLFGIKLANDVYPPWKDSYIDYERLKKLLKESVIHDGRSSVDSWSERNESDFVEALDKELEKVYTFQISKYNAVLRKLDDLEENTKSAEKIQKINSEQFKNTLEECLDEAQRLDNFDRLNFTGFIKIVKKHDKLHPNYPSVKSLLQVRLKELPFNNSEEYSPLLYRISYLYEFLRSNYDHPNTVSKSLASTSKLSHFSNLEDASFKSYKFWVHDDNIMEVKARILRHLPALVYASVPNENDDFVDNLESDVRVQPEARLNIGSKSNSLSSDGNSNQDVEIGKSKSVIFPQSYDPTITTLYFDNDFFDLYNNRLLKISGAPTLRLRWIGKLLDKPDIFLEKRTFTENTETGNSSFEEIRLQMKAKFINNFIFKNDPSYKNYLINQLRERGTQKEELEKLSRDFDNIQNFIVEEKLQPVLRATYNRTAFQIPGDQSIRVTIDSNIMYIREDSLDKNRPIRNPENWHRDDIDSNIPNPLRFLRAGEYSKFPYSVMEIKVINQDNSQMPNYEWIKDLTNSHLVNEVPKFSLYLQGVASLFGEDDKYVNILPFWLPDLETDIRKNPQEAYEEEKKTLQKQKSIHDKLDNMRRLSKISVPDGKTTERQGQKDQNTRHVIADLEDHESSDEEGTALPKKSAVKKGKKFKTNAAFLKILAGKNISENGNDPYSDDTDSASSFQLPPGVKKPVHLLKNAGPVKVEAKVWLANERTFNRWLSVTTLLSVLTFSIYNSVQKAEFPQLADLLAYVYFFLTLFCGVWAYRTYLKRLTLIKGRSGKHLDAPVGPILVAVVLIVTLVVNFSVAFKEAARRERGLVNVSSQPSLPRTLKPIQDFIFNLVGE
T1 sequence (P40046 2-129 partner): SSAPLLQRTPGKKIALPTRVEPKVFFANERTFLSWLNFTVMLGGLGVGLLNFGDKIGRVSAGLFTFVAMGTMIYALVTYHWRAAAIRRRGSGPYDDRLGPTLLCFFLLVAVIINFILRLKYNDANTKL

T2: Vtc3 (Baker's yeast, UniProt Q02725 1-835)
T2 construct: Vtc3, yeast, UniProt Q02725; codon-optimized DNA in the pMlink vector; source: Expi293F cells, transiently cotransfected with the Vtc1 and Vtc4 plasmids; purified as part of the VTC complex (anti-Flag resin, Strep-Tactin resin; SEC for the cryo-EM sample); not shown: 3×Flag, N-terminal, kept
T2 sequence: T1 sequence (Q02725 1-835)

B1: Vtc4_(R264A/R266A/E426N) (natural protein, Baker's yeast)
chain: KFGEHLSKSLIRQYSYYYISYDDLKTELEDNLSKNNGQWTQELETDFLESLEIELDKVYTFCKVKHSEVFRRVKEVQEQVQHTVRLLDSNNPPTQLDFEILEEELSDIIADVHDLAKFSRLNYTGFQKIIKKHDKKTGFILKPVFQVRLDSKPFFKENYDELVVKISQLYDIARTSGRPIKGDSSAGGKQQNFVRQTTKYWVHPDNITELKLIILKHLPVLVFNTNKEFEREDSAITSIYFDNENLDLYYGRLRKDEGAEAHALAWYGGMSTDTIFVERKTHREDWTGEKSVKARFALKERHVNDFLKGKYTVDQVFAKMRKEGKKPMNEIENLEALASEIQYVMLKKKLRPVVRSFYNRTAFQLPGDARVRISLDTELTMVREDNFDGVDRTHKNWRRTDIGVDWPFKQLDDKDICRFPYAVLNVKLQTQLGQEPPEWVRELVGSHLVEPVPKFSKFIHGVATLLNDKVDSIPFWLPQMDVDIRKPPLPTNIEITRPGRSDNEDNDFDEDDEDDAALVAAMTNAPGNSLDIEESVGYGATSAPTSNTNHVVESANAAYYQRKIRNAENPISKKYYEIVAFFDHYFNGDQISKIPKGTTFDTQIRAPPGKTICVPVRVEPKVYFATERTYLSWLSISILLGGVSTTLLTYGSPTAMIGSIGFFITSLAVLIRTVMVYAKRVVNIRLKRAVDYEDKIGPGMVSVFLILSILFSFFCNLVAK
notes: Vtc4, yeast, UniProt P47075; codon-optimized DNA in the pMlink vector; three substitutions in the TTM domain; also called catalytically impaired Vtc4; source: Expi293F cells, transiently cotransfected with the Vtc1 and Vtc3 plasmids; purified as part of the VTC complex with 1 mM InsP6 (anti-Flag resin, Strep-Tactin resin, SEC); not shown: 2×Strep, C-terminal, kept
B2: Vtc1 (natural protein, Baker's yeast)
chain: T1 sequence (P40046 2-129 partner)
notes: Vtc1, yeast, UniProt P40046; codon-optimized DNA in the pMlink vector; Three copies of Vtc1 stand in the Vtc1/Vtc3/Vtc4 complex (3:1:1); also called Vtc1A; Vtc1B; source: Expi293F cells, transiently cotransfected with the Vtc3 and Vtc4 plasmids; purified as part of the VTC complex (anti-Flag resin, Strep-Tactin resin; SEC for the cryo-EM sample)

Columns and labels:
[1] = molecular target: T1, Vtc1/Vtc3/Vtc4 complex (VTC complex); test: polyP synthesis, TBE-PAGE and DAPI; type: biochemical; conditions: 15 mM ATP, 10 mM MgCl2, 1 mM MnCl2, 0.5 mM pyrophosphate, InsP6, 27 °C, 4 h
Vtc3 = molecular target: T2, Vtc3; test: cryo-EM structure; Vtc1/Vtc3/Vtc4_(R264A/R266A/E426N) complex co-expressed in Expi293F and purified with 1 mM InsP6, 0.02% GDN, 25 mM Tris-HCl pH 8.0, 150 mM NaCl; 3.0 Å; conditions: both partners purified
[2] = molecular target: the molecule itself; test: as above
Vtc4_(R264A/R266A/E426N) = molecular target: B1; test: as above; conditions: both partners purified

Molecule: Nc1ncnc2c1ncn2[C@@H]1O[C@H](COP(=O)(O)OP(=O)(O)OP(=O)(O)O)[C@@H](O)[C@H]1O [ATP]
- polyP synthesis, TBE-PAGE and DAPI [1]: we incubated VTC complex with ATP and InsP6

Molecule: B1
- stoichiometry N (Vtc3): 1

Molecule: B2
- stoichiometry N [2]: 3
- stoichiometry N (Vtc3): 3
- stoichiometry N (Vtc4_(R264A/R266A/E426N)): 3
